Experimental findings from patent US20240200085A1 (AARHUS UNIVERSITET, published 2024) are described below.

For the experiment, the target named is T1, GFP-tagged NFR5 (LjNFR5-sfGFP) (Lotus japonicus).
T1 construct: Full-length receptor with C-terminal sfGFP; In the co-IP it was expressed from pLjUbi in N. benthamiana leaves and extracted with detergent; In nodulation assays it was expressed from the native Nfr5 promoter in roots; also called NFR5-GFP
Kind of experiment: co-immunoprecipitation (RFP-Trap) from N. benthamiana leaf extracts, anti-GFP and anti-mCherry immunoblot (FIG. 1J). On the procedure: The assay was performed as in Arora et al. (The Plant Cell 34, 7, 2806 (2022)). In short, N. benthamiana leaves were crushed to a powder in liquid nitrogen using a mortar and pestle, then incubated for 1 hour at 4° C. on a rotor in buffer containing 50 mM Tris-HCl (pH 7.5), 150 mM NaCl, 10% (v/v) glycerol, 2 mM EDTA, 5 mM DTT, 1 mM phenylmethylsulfonyl fluoride, Protease Inhibitor Cocktail (Sigma-Aldrich), and 1% (v/v) IGEPAL® CA-630 (Alfa Aesar) in a ratio of 2 mL/g tissue. Extracts were centrifuged at 4° C. and 4700 rpm for 30 minutes. Supernatants were directly incubated with RFP-Trap® Magnetic Agarose beads (ChromoTek®) overnight at 4° C. The beads were washed five times in buffer containing 50 mM Tris-HCl (pH 7.5), 150 mM NaCl, 10% (v/v) glycerol, 2 mM EDTA, Protease Inhibitor Cocktail (Sigma-Aldrich), and 0.5% (v/v) IGEPAL® CA-630 (Alfa Aesar) on ice. To release the proteins, 50 μL of SDS sample buffer (25 mM Tris-HCl, pH 6.8, 10% glycerol, 2% SDS, 0.2% 2-mercaptoethanol, 0.6 mg/mL Bromophenol blue) was added and samples were heated for 5 minutes at 95° C.
Proteins were separated on 12% SDS-polyacrylamide gels at 120 V for 3 h. Blotting to PVDF membranes (Merck) was done by wet transfer for 2 hours at 90 V. Membranes were blocked with 5% milk for 1 hour. […] Chemiluminescence was detected on a G-BOX (Syngene) using ECL Prime Western Blotting Detection Reagent (Cytiva).
On the technique in general: In western blotting, separated proteins are transferred to a membrane and probed.

T1 sequence (chain, as listed by the source limits assumed): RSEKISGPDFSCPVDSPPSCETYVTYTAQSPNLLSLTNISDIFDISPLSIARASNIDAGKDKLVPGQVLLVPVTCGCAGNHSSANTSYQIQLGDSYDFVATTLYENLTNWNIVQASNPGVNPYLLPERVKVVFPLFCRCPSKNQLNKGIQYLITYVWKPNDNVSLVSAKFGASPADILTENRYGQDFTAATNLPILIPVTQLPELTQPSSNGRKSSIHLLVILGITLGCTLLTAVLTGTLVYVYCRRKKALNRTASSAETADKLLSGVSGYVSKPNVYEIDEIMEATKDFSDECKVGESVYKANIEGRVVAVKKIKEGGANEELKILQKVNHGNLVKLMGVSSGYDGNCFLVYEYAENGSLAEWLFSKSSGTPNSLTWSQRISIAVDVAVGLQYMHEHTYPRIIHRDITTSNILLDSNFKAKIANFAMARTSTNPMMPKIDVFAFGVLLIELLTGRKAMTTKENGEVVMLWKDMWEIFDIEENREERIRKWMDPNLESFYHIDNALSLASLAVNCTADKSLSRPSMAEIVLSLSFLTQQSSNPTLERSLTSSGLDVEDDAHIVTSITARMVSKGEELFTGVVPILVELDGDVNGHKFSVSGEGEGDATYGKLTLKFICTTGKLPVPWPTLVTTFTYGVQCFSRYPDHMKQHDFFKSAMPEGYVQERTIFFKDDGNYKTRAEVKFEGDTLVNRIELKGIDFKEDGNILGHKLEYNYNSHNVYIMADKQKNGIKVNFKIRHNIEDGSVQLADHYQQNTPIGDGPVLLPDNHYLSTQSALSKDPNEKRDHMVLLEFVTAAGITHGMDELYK

B1: VHHLaG16m-tagged mCherry (mCherry_20linker_mutNbsfGFP-HA) (VHH)
VHH: QVQLVESGGRLVQAGDSLRLSCAASGRTWSTSAMAWFRQAPGREREFVAAITWWVGNTILGDSVKGRFTISRDRAKNTVDLQMDNLEPEDTAVYYCSARSRWYVLSVLRSVDSYDYWGQGTQVTVSS
notes: Construct EC32015, expressed in N. benthamiana leaves; LaG16 was engineered to carry three bulky tryptophan residues in the paratope; also called mCherry mutNb; mutated LaG16; not shown: mCherry red fluorescent protein (engineered); 20-residue linker ('20linker'); HA tag
Turning to B1, the binding result is “no binding”.
